This data set in a line: label from the status in PepcDB records.
In the case of “MSERVSEEPGLDKGDRAEECELDDPELKAIRMRVREMEEEAERLKGLSGQDKSIGVSTRPCMQTTHSKMTAGAYTEGPPQPLSAEEKKEIDKRSVYVGNVDYGSTAQDLEAHFSSCGSINRITILCDKFSGHPKGYAYIEFAERNSVDAAVAMDETVFRGRTIKVLPKRTNMPGISSTDRGGFRGRPRGNRGNYQRGQRPRGRPFRGRGRPGPLNNPY”, the protein production result is on record as “not failed”.
Next, “MGLSSLPGPSEGMLCVILVNTALSISIVKGIVRSFLGIVGISLSPSSSSPSSVTVSSENSSTSESFDFRVCQPESYLEEFRNRTPTLRFESLCRCKKQADNECSVCLSKFQGDSEINKLKCGHLFHKTCLEKWIDYWNITCPLCRTPLVVVPEDHQLSSNVW”: “failed”.
Take “MAVYTDITEDELRNFLTQYDVGSLTSYKGIAEGVENSNFLLHTTKDPLILTLYEKRVEKNDLPFFLGLMQHLAAKGLSCPLPLPRKDGELLGELSGRPAALISFLEGMWLRKPEAKHCREVGKALAAMHLASEGFEIKRPNALSVDGWKVLWDKSEERADEVEKGLREEIRPEIDYLAAHWPKDLPAGVIHADLFQDNVFFLGDELSGLIDFYFACNDLLAYDVSICLNAWCFEKDGAYNVTKGKALLEGYQSVRPLSEAELEALPLLSRGSALRFFLTRLYDWLTTPAGALVVKKDPLEYLRKLRFHRTIANVAEYGLAGE”: the protein production entry is “not failed”.
The value for “MDERNVSKPAMRGHKLVLNNRTASLVTGVKDVLSFDLNEVLLETEQGMLMVKGTDLHVNRLSLEKGEVDLSGNIDSIAYSDVHAEQKQGENLFARLFR” was “failed”.
In the case of “MTPPEIDFFPDFIADPHRLFNHLKDSVLWDERMRARKTASFGAPYDYSQITYPAVPMPEALEQLCGPIEQLLGFRPNNCLLNCYPDGHSSMGFHSDANEQLVTGTGVVIVSLGHARAMVFRHKESGATFDYSLASGSLLHMSDELQKHWLHAIPKAPDAGERISLSFRQLKTGLEHHHHHH”, the protein production result was “not failed”.
Next, “MTGVLSGMAKTYLEFSDPNGAEHKFYEVTVDGPELTIRYGRIGTDGQRSTKTFPDAAVAQAEADKKIREKRKKGYEDAVMGARQKRTVVRREVTETRSTTRQIAPVLWRFKTRSAAYGIFVDQNTAWVGNDSGEVFALTLSGEVDRSFRLPDGVKCLVSDQFRTFAGCDDGNVYDLSGKLPFMAYEVESKAALLWLDLHGGTLGVSDSGGGVYAFDAESDQQWGHTDDRASMGWMVRVDARGVYYGHSRGVGMFDRESGFPNWHRPTRGSVLFGWQEGNDLYAGTSANLIQRFTKAGEHVQDYQCDGSVLSCAASPGGEFVFAGDSGSAVYCFNRAGERLWKLGTGCASALSMQFAADKLYIVTTNGTLAAIDVSPAAIEAARQGTTPEVRDVKLAAAMPAQAPATELTVTRNASGGVLLRGVQEGSKVRIRPDDSRFHKDWNVQFPRNLRAADGLYVVDDLEDAGGFYRVVGDLRRLENLEHHHHHH”: “not failed”; “PIKMGWLKKQRSIVKNWQQRYFVLRAQQLYYYKDEEDTKPQGCMYLPGCTIKEIATNPEEAGKFVFEIIPASWDQNRMGQDSYVLMASSQAEMEEWVKFLRRVAG”: “not failed”.
In the case of “MSRGGFCQTYFAVDECQSPPVPYVVQKLHDNEQLLDSFQQKAQYIEQLSQNSQLPTLLAYFRDQDNYYFVQEFIAGASLAQVVQEEGAFHETQVWQLLTNLLPILKLMSDRQLIHGDIKPENIIRQLTPDSTNLVLVDFGHVQIVSRTDQITDVQGVGSPEYAAPEQITGQAVFASDLYSLGVTCIHLLTLVSPFDLFDIANDCWVWQQYLTTKISDRLTKILNKLIQKSVHQRFQSADEVMQVMGIEGKILHYPPPPSPWQCLHTLTGYSTNSLAISPDGNKLASGGDDKIIRLWELNTQKLLACFSGHSQAVTSVSFSPQGEILATASDDKTIKLWHLPTSSEVFTLNGHTNPVKSVSFSPNGQILASGSWDKQVKLWDVTTGKEIYALKAHQLQVSAVAFSPQGEILASASFDRTIRLWQITQNHPRYTLIKTLSGHTRAVLAIAFSPDGKILATGSDDNTIKLWDINTGQLIATLLGHSWSVVAVTFTADNKTLISASWDKTIKLWKVSTTEEIVTLASHLDSVCAVAVNPVTQVIASSSRDKTIKLWQLVIQQN”, the protein production result is on record as “failed”.
Turning to “TDAFVFEGFLPTRGKRRLEKLANLKGEQRVVIFYEAPGRLQAALADMREVLGDRHVVVARELTKIHEEFVRGRVSFVAEHFAAVDVKGEVVILVAPAPAP”, the protein production result is reported as “failed”.
Turning to “IHIQQIENLMEYEFSHLVQDSEEEGFNFLIRLINGYKNKVNVFNKTGECLYGIFQGDMLIGVGGLNEDPYTKDNKIGRLRRFYISRDYRRLGLGNLLLNQLLCHAEKYFEVIVLHTDTKQGDVFYTANGFVK”, the protein production result is “failed”.
With “MMELHDLAEDLPSKWTEIMAVAEKAFRAFAELDAVKRELAESENAQ”, the protein production entry is “not failed”.
On to “NGDQQTMVYIVSAKRKIIADRMLQELDLGVTMLQAVGAYKNNETEVIMCVMRKATLVKVRNLLKEVDPDAFMIVSTANEVFGEGFKNQYETEI”, for which the protein production entry is reported as “not failed”.
Consider “MDALLTKFNEDRSLQDENLSQPRTRVRIVDDNLYNKSNPFQLCYKKRDYGSQYYHIYQYRLKTFRERVLKECDKRWDAGFTLNGQLVLKKDKVLDIQGNQPCWCVGSIYCEMKYKPNVLDEVINDTYGAPDLTKSYTDKEGGSDEIMLEDESGRVLLVGDFIRSTPFITGVVVGILGMEAEAGTFQVLDICYPTPLPQNPFPAPIATCPTRGKIALVSGLNLNNTSPDRLLRLEILREFLMGRINNKIDDISLIGRLLICGNSVDFDIKSVNKDELMISLTEFSKFLHNILPSISVDIMPGTNDPSDKSLPQQPFHKSLFDKSLESYFNGSNKEILNLVTNPYEFSYNGVDVLAVSGKNINDICKYVIPSNDNGESENKVEEGESNDFKDDIEHRLDLMECTMKWQNIAPTAPDTLWCYPYTDKDPFVLDKWPHVYIVANQPYFGTRVVEIGGKNIKIISVPEFSSTGMIILLDLETLEAETVKIDI”, for which the protein production result is recorded as “failed”.
Regarding “MKTGNLNPAPQQVTAPQNKARMDWPDIAKGISILGVVLLHVSLAIPGGQDTMMSHLNALLDPLRMPLFFMVSGFFAVKVLNQSFGELFRGRLWFYLVPYLLWTPVNLYLHRLEGTVFTGRAPGTWEWYSGSMLSATNMYWFLYFLVIFNLFLWATRKLPAWAIVALVASLWLLMPAYSEIEILRKSIIYLPTFLIGAYFRPLISRFAEAATRPKAIVFAAVLYVSGLALGVISNGLRDSENHGASVLWLMNLRDTFAHALGGNLTGFDMDHLPGMIIRIVSLPAGIVLCVWLGRIKPVGEFLKLIGRHTLPIYIGHATGLSLIFGFGLRWNFMEIDNFSDSLWHHTNTWMVIAFACAMLGGYLTYLISRVPVLGWTLVPPKLPEPDKTPAKAQADSHVKAQSAKPMNASTSSKTYGI”, the protein production entry was “failed”.
Next, “MRGLSRNSGAAAIFAILLILAVHNWSVAVSSQSTEFAGDFPPFETECRGTIAECSVSAALGDGGDLFYGGGEMGEEFEMDSEINRRILATRRYISYGALRRNTIPCSRRGASYYNCRRGAQANPYSRGCSAITRCRRS”: “failed”.
As to “ARNAEAEGRLVRECRELLERHAFEELTVPDIAECLGVSVRTLQTALRAETGATPSELLRSIRLDRAREMLLEANPREQSVTAVAEQCGFTHQGRFSALYVKAFGELPSESLRR”, the protein production result is recorded as “failed”.
Next, “PVAGPYITFTDAVNETTIMLKWMYIPASNNNTPIHGFYIYYRPTDSDNDSDYKKDMVEGDRYWHSISHLQPETSYDIKMQCFNEGGESEFSNVMICETKAR”: “not failed”; “MKVAVLVGGVGRRIGMEKTEVMLCGKKLIEWVLEKYSPFQTVFVCRDEKQAEKLSSRYEAEFIWDLHKGVGSIAGIHAALRHFGSCVVAAIDMPFVKPEVLEHLYKEGEKAGCDALIPKHDYPEPLLAYYAESAADELERAILQGIRKILVPLERLNVVYYPVEKLRKFDKELISFFNINTPDDLKRAEEICSKMSTEGLLEHHHHHH”: “not failed”.
For “MKVGAVVITMGNRPEELRALLDSVAKQDGDPVQVVVVGNGSPVPEVPEGVRTVELPENLGIPGGRNVGIEAFGPGGSDVDILLFLDDDGLLARTDTAELCREAFAADDELGIISFRIADPDTGETQRRHVPRLRASDPMRSSRVTTFLGGANAVRTRVLTQVGGLPDAFFYAHEETDLAWRALDAGWMIDYRSDMVLNHPTTAPSRHAVYHRMVARNRVWLARRNLPALLVPVYLGVWMALTLLRRPSRPALKAWFGGFREGWATPCGPRRPMRWRTVWRLTRLGRPPVI”, the protein production result is reported as “failed”.
Take “MTKITVLSGKGGTGKTTVSVNMAKALSESYRVQLLDADVEEPNDHIFFNVDVSFEEPVHLMIPVVDNSVCIRCGECASTCQFGAISVFPSGTFVFESLCHGCGACSIMCPVNAISERPKEIGKIRFGTADGNISFGMGILNIGERTGVPVIRKLKKHIDEKADVVIVDAPPGTSCPVVESLRNTDFALLVTEPTAFGLHDLKLAVELTKEMGIPSGIVVNRYIPGNTIIEEFADEEGIPVLLKIPFKREIASLCAEGKLIVEAFQDMKKDFLELFEKIEVMVRLEHHHHHH”: the protein production entry is “not failed”.
For “MTNLGTAKNFWDATLYQDKHSFVWQYGEDLLQLLNPQPGEFILDLGCGTGQLTEKIAQSGAEVLGTDNAATMIEKARQNYPHLHFDVADARNFRVDKPLDAVFSNAMLHWVKEPEAAIASIHQALKSGGRFVAEFGGKGNIKYILEALYNALETLGIHNPQALNPWYFPSIGEYVNILEKQGFDVTYAALFNRPTTLAEGEFGMANWIQMFASAFLVGLTPDQQVQLIRKVEATLQDKLYHQESWTADYRRIRIVSIKAQ”, the protein production result is on record as “not failed”.
Next, “MQDSSSQHEPLWDRFGDLTVWKRGDQRAPHKPLLILYALGRLAQGDRWLRFSDIEEDLTDLLIEFGPPRQSHHPEYPFWHLRSDGVWVVPEADVLEMRQSASNPPKTELREKEARGGFSDDIHQAFRNDSELRRGIARLLLSSHFPTSLHEDIATAVSLDLEGAASERRDPEFRTQVLQAYQYRCAICGFNLQLGMSGTPIGVEAAHIKWKQARGPDEISNGIALCALHHKMLDKGALHVTEDLRLFVSEAVHGSQPHLSRLQDRHGNRIHTPQRETYYPNGEVVTWHVNEVFRGPPRV”: “failed”; “MKIKANGNEVQIEREMTIFEMLDALNVSMKEYVTVQLNGQIIPRSEYDKVTVKDGDEVEFLYFMGGGLL”: “failed”.
Take “MALAVTSSSTAISGSSFSRSGASSESKALQICSIRLSDRTHLSQRRYSMKPLNAESHSRSESWVTRASTLIAPEVEEKGGEVEDFEQLAKKLEDASPLEIMDKALERFGDQIAIAFSGAEDVALIEYARLTGKPFRVFSLDTGRLNPETYRLFDAVEKQYGIRIEYMFPDAVEVQALVRNKGLFSFYEDGHQECCRVRKVRPLRRALKGLKAWITGQRKDQSPGTRSEIPIVQVDPVFEGLDGGVGSLVKWNPLANVEGADVWNFLRTMDVPVNALHAQGYVSIGCEPCTRPVLPGQHEREGRWWWEDAKAKECGLHKGNIKEEDGAADSKPAAVQEIFESNNVVALSKGGVENLLKLENRKEAWLVVLYAPWCPFCQAMEASYIELAEKLAGKGVKVAKFRADGEQKEFAKQELQLGSFPTILLFPKRAPRAIKYPSEHRDVDSLMSFVNLLR”: the protein production result is “failed”.
As to “MNFPTQTHAIDFDTAELQRLGFRNRPDAVLPPPSLPELVYQLGRQLQTSLEAERILTLFFQGVQRFLPLSGLVYRHIESDLHLRLGEMSSDSASFHLRHEGKCIGELEFQGAKPFDTRQLSDLESLLVCLVYPLLNALLYRIATQTALRDPLTSTGNRIAMDQGLAREIEISSRHKQPLSLLMLDIDHFKKVNDEYGHHTGDDVLKTVAQSLKAQLRNIDRVFRYGGEEFVVILSNTGATAAELIGERLRQAVRNLEFRELDPALTMTVSLGCSTLLPTETADSLLRRADNALYVAKREGRNRLAMAS”, the protein production entry is listed as “failed”.

The values are drawn from a protein production outcome set (Wang et al. 2014).
